From publication PMC5127646, “Structural basis for the recognition of spliceosomal SmN/B/B’ proteins by the RBM5 OCRE domain in splicing regulation” (eLife, 2016)
Numbering of substitutions follows the chain as printed. Names and notes keep the numbering of the source.

B1: SmN 167-240 4P/3P→4G/3G (domain or fragment)
chain: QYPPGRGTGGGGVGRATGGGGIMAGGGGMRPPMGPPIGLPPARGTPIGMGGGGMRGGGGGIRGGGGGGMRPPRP
B2: SmN peptide, residues 219-229 (GMRPPPPGIRG) (peptide)
peptide: GMRPPPPGIRG
notes: source: synthetic peptide (Peptide Specialty Laboratory, Heidelberg)
B3: SmN 167-240 4P→4A (domain or fragment)
chain: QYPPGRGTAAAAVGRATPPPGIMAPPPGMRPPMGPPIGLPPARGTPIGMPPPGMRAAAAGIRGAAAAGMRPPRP
B4: SmN 167-240 4P/3P→4A/3A (domain or fragment)
chain: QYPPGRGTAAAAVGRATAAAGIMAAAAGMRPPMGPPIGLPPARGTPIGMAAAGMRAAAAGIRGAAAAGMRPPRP
B5: RBM5 OCRE domain (residues 451-511), wild type (domain or fragment, human)
chain: GAMGTKYAVPDTSTYQYDESSGYYYDPTTGLYYDPNSQYYYNSLTQQYLYWDGEKETYVPAAES
notes: tripeptide left by the TEV cleavage; 15N- or 13C,15N-labelled in the NMR experiments; also called RBM5_OCRE WT; source: E. coli BL21, purified (Ni-NTA, TEV cleavage, gel filtration); not shown: His6, N-terminal, cleaved
B6: RBM5 OCRE domain (451-511) Y495A (domain or fragment, human)
chain: B5 chain with Y48A
notes: tripeptide left by the TEV cleavage; RBM5, human, OCRE domain, residues 451-511; source: E. coli BL21, purified (Ni-NTA, TEV cleavage, gel filtration); not shown: His6, N-terminal, cleaved
B7: RBM5 OCRE domain (451-511) Y486A (domain or fragment, human)
chain: B5 chain with Y39A
notes: as for B6
B8: RBM5 OCRE domain (451-511) Y495W (domain or fragment, human)
chain: B5 chain with Y48W
notes: as for B6
B9: RBM5 OCRE domain (451-511) Y495T (domain or fragment, human)
chain: B5 chain with Y48T
notes: as for B6
B10: RBM5 OCRE domain (451-511) E501K (domain or fragment, human)
chain: B5 chain with E54K
notes: as for B6
B11: RBM5 OCRE domain (451-511) Y495F (domain or fragment, human)
chain: B5 chain with Y48F
notes: as for B6
B12: RBM5 OCRE domain (451-511) Y454A/D458K (domain or fragment, human)
chain: B5 chain with Y7A, D11K
notes: as for B6
B13: RBM5 OCRE domain (451-511) Y479A (domain or fragment, human)
chain: B5 chain with Y32A
notes: as for B6
B14: RBM5 OCRE domain (451-511) Y488A (domain or fragment, human)
chain: B5 chain with Y41A
notes: as for B6
B15: SmN residues 167-196 (domain or fragment)
chain: not shown
notes: source: E. coli BL21, purified (Ni-NTA, TEV cleavage, gel filtration); not shown: His6, N-terminal, cleaved; GST, N-terminal, cleaved

Experiments:
Settings in all cases: both partners purified
[1] = biological target: B5; experiment: ITC; Sm tail constructs with wild type OCRE; SmN constructs (1 mM) titrated into OCRE (100 μM); ITC200, 24°C, 20 mM sodium phosphate pH 6.5, 50 mM NaCl; duplicates
[2] = biological target: B5; experiment: NMR structure; solution structure; 2 mM ^13C,^15N-labeled OCRE with 14 mM unlabeled SmN 219-229 peptide, 298 K; 109 intermolecular NOE restraints
[3] = biological target: T1, SmN C-terminal tail, residues 167-240 (complete proline-rich region), wild type (human, UniProt P63162 167-240); experiment: ITC; Sm tail constructs with wild type OCRE; SmN constructs (1 mM) titrated into OCRE (100 μM); ITC200, 24°C, 20 mM sodium phosphate pH 6.5, 50 mM NaCl; duplicates
T1 construct: The ITC methods print 168-240 for this construct; also called SmN_167-240 WT; source: E. coli BL21, purified (Ni-NTA, TEV cleavage, gel filtration); not shown: His6, N-terminal, cleaved; GST, N-terminal, cleaved

[4] = biological target: T2, SmB C-terminal region, residues 167-231, wild type (human, UniProt P14678-2 167-231); experiment: as above
T2 construct: source: E. coli BL21, purified (Ni-NTA, TEV cleavage, gel filtration); not shown: His6, N-terminal, cleaved; GST, N-terminal, cleaved

[5] = biological target: T1, SmN C-terminal tail, residues 167-240 …; experiment: ITC; purified OCRE mutants (2 mM) titrated to wild type SmN (29.5 μM); ITC200, 24°C, 20 mM sodium phosphate pH 6.5, 50 mM NaCl; duplicates

Binder	Kd [5]	further results
B1		Kd [1]: 192 µM
B2		binding result [2]: binds
B3		Kd [1]: 29 µM
B4		Kd [1]: 103 µM
B5		Kd [3]: 41 µM; Kd [4]: 21 µM
B6	172 µM	
B7	145 µM	
B8	35 µM	
B9	186 µM	
B10	48 µM	
B11	87 µM	
B12	106 µM	
B13	111 µM	
B14	220 µM	
B15		Kd [1]: 195 µM
